One block for each binder: values may come before it.
B1: Aβ1-16 (peptide, UniProt P05067 672-687, looked up)
peptide: DAEFRHDSGYEVHHQK
notes: domain: Aβ1-16; also called N-terminal part of the Aβ peptide; Aβ1-16 peptide
B2: mouse monoclonal antibody 158 (mAb158) (antibody, V domains shown)
VH: DVQLVESGGGLVQPGGSRKLSCAASGFTFSSFGMHWVRQAPEKGLEWVAYISSGSSTIYYGDTVKGRFTISRDNPKNTLFLQMTSLRSEDTAMYYCAREGGYYYGRSYYTMDYWGQGTSVTVSS
VL: DVLMTQTPLSLPVSLGDQASISCRSSQSIVHSNGNTYLEWYLQKPGQSPKLLIYKVSNRFSGVPDRFSGSGSGTDFTLKISRVEAEDLGIYYCFQGSHVPPTFGGGTKLEIK
notes: Mouse hybridoma IgG with a kappa light chain; In the sandwich ELISA the detecting copy was biotinylated; also called BA9

Columns and labels:
[1] = molecular target: B2; assay: mAb158 sandwich ELISA, Aβ1-16 competing with 50 pM Aβ protofibrils
Text: (§1) A large excess of monomeric Aβ, holoAPP and APP-fragments, naturally occurring in biological samples, could interfere with the Aβ protofibril analysis by occupying binding sites of the capture antibody coat, thus inhibiting the protofibrils from binding. This problem was investigated by adding an increasing excess of Aβ1-16 to a fixed concentration of Aβ protofibrils (50 pM, expressed as monomer units) and analyzing it with both the mAb158 ELISA and a 6E10-6E10 sandwich ELISA (FIG. 6C). […] Moreover, when synthetic Aβ protofibrils was added to mock HEK cell culture media or non-transgenic mouse brain homogenates, 90% of the signal was recovered (data not shown).

6E10 = assay: 6E10-6E10 sandwich ELISA, Aβ1-16 competing with 50 pM Aβ protofibrils
Text: as §1

medin fibrils = molecular target: T1, medin fibrils (UniProt Q08431 268-317, not fully specified); assay: dot blot, fibrils on nitrocellulose membrane
T1 construct: Fibrils immobilized on a nitrocellulose membrane
T1 peptide (looked up): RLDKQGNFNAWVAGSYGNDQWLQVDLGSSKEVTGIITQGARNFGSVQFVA
Text: (§2) Due to technical difficulties in generating protofibrils from other amyloidogenic proteins than Aβ, mAb158 was instead tested against different amyloid fibrils. The dot blot assay was used for these experiments since inhibition ELISA, where the antibody-antigen reactions take place in solution, is not suitable for insoluble antigens like fibrils. The dot blot assay is however not suitable for evaluation of antibody specificity for various Aβ forms, i.e. for measuring differences in selectivity for profibrils and fibrils. […] As positive controls the antibodies 6E10 (Aβ), pAb179 (medin), pAbA110 (IAPP) and mAb211 (α-synuclein) were used (FIG. 5B). Representative blots from repeated experiments (n=3).

[2] = molecular target: T2, islet amyloid polypeptide (IAPP) fibrils (UniProt P10997 34-70, not fully specified); assay: dot blot, fibrils on nitrocellulose membrane
T2 construct: Fibrils immobilized on a nitrocellulose membrane
T2 peptide (looked up): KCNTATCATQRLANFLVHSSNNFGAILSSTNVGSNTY
Text: as §2

α-synuclein fibrils = α-synuclein fibrils (UniProt P37840 1-140); assay: dot blot, fibrils on nitrocellulose membrane
Text: as §2

[3] = molecular target: T3, C-terminal fragment of Aβ (UniProt P05067 688-711); assay: competitive ELISA, plate coated with Aβ protofibrils
T3 construct: domain: C-terminal fragment of Aβ; also called Aβ fragment 17-40
T3 peptide (looked up): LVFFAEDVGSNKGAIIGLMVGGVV
Method: (§3) From competitive ELISA experiments, the antibody has a strong affinity for human Aβ42 wild-type protofibrils, but only very weak affinity for the N-terminal part of the Aβ peptide and Aβ monomers.
In FIG. 2B a competitive ELISA is shown. An ELISA plate was coated with human Aβ protofibrils. […] The incubation mix was added to the microtiter plate wells and free antibody was allowed to bind to immobilized protofibrils in the wells.

AβArc protofibrils = molecular target: T4, AβArc protofibrils (human, UniProt P05067 672-713, limits assumed); assay: sandwich ELISA, mAb158 as both capturing and detecting antibody
T4 construct: Used for a standard curve in the mAb158 sandwich ELISA; also called Arctic Aβ protofibrils
Text: Establishment of an Aβ protofibril specific sandwich ELISA. To enable measurements of Aβ protofibrils in biological samples a sandwich ELISA with mAb158 as both capturing and detecting antibody was established. This assay measures Aβ protofibrils with a detection limit of 1 pM and with a linear range up to 250 pM (FIG. 6A, lines indicate linear regression of the standard curves). Due to uncertainties concerning the size of the Aβ protofibrils used in the standard curve, the concentration 1 pM is based on the molecular weight of one Aβ monomer (4514 g/mol), Though, since the molecular weight of a protofibril has been estimated to be at least 100 kDa, the limit of detection calculated as molar Aβ protofibrils could be as low as 50 fM. A standard curve of AβArc protofibrils gave a lower signal than wild type Aβ protofibrils, possibly due to differences in Aβ protofibril size (FIGS. 6A, 6B). Titrated synthetic LMW-Aβ (Low Molecular Weight Aβ). By the term "Low Molecular Weight Aβ", it is meant monomers, dimers and trimers of Aβ having a molecular weight of approximately 4-12 kDa. Aβ protofibrils and Aβ1-16 were used to validate the conformation specificity of the ELISA (FIG. 6B), where the hydrophilic Aβ1-16 peptide was used since it is not expected to aggregate. […]

Aβ fibrils = molecular target: T5, Aβ fibrils (UniProt P05067 672-713); assay: sandwich ELISA, mAb158 as capture and biotinylated mAb158 as detector
T5 construct: Insoluble fibrillar aggregate
Method: as §3
In FIG. 2A a sandwich ELISA is shown. […] Colour development was measured according to the procedure recommended by the manufacturer.

Aβ1-16 = molecular target: B1; assay: mAb158 sandwich ELISA with excess Aβ1-16 added to 50 pM Aβ protofibrils
Text: as §1

[4] = molecular target: T6, human Aβ42 wild-type protofibrils (human, UniProt P05067 672-713); assay: competitive ELISA with monomeric and protofibrillar Aβ
T6 construct: domain: Aβ42; Soluble oligomeric aggregate of many Aβ42 peptides; also called Aβ protofibrils; human wild-type Aβ protofibrils
T6 sequence (P05067 672-713 limits assumed): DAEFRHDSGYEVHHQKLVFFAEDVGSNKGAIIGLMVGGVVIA

T4 sequence (P05067 other isoform, or with tags, fused parts or gaps limits assumed): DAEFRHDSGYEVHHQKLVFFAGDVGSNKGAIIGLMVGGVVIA
Sequence of 6E10 (VH, as listed by the source, chain 1 of 2): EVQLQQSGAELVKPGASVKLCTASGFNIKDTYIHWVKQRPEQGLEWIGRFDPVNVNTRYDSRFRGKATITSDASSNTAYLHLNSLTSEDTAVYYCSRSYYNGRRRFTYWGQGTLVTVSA
Sequence of 6E10 (VL, as listed by the source, chain 2 of 2): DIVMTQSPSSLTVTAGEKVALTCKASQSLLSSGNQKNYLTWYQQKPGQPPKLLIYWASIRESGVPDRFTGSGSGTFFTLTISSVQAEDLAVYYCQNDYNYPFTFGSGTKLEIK
T5 sequence (P05067 672-713): as the sequence (P05067 672-713 limits assumed) above

Binder: B1
molar excess of Aβ1-16 over Aβ protofibrils that did not disturb the signal [1]: 500000 fold
molar excess of Aβ1-16 over Aβ protofibrils enough to decrease the signal (6E10): 500 fold

Binder: B2
binding result (medin fibrils): no binding
binding result [2]: no binding
binding result (α-synuclein fibrils): no binding
binding result [3]: no binding
binding result (AβArc protofibrils): binds
fold less cross-reactivity than with Aβ protofibrils (Aβ fibrils): < 40 fold
binding result (Aβ1-16): binds

binding result [4]: binds
B3: humanized 158 antibody (BAN2401) (antibody, V domains shown)
VH: EVQLVESGGGLVQPGGSLRLSCSASGFTFSSFGMHWVRQAPGKGLEWVAYISSGSSTIYYGDTVKGRFTISRDNAKNSLFLQMSSLRAEDTAVYYCAREGGYYYGRSYYTMDYWGQGTTVTVS
VL: DVVMTQSPLSLPVTPGAPASISCRSSQSIVHSNGNTYLEWYLQKPGQSPKLLIYKVSNRFSGVPDRFSGSGSGTDFTLRISRVEAEDVGIYYCFQGSHVPPTFGPGTKLEIK
